# From paper PMC5817196, “DprA from Neisseria meningitidis: properties and role in natural competence for transformation” (Microbiology, 2017)
# T1: DprA (DprANm) (Neisseria meningitidis MC58, UniProt Q9K1K1 1-397)
# T1 sequence: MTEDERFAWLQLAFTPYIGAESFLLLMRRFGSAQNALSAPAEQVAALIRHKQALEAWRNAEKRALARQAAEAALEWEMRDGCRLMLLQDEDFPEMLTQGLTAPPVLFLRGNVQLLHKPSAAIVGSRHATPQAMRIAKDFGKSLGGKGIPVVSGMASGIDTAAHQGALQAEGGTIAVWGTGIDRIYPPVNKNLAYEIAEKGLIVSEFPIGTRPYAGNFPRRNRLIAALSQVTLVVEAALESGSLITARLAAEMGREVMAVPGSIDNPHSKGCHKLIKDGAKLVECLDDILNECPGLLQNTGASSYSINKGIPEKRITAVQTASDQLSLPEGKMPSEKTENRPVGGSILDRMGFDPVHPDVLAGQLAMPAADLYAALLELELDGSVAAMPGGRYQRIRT
# B1: DNA processing chain A from Neisseria meningitidis MC58 (DprANm), recombinant, N-terminal 6xHis-tag (natural protein, UniProt Q9K1K1 1-397, looked up)
# chain: MTEDERFAWLQLAFTPYIGAESFLLLMRRFGSAQNALSAPAEQVAALIRHKQALEAWRNAEKRALARQAAEAALEWEMRDGCRLMLLQDEDFPEMLTQGLTAPPVLFLRGNVQLLHKPSAAIVGSRHATPQAMRIAKDFGKSLGGKGIPVVSGMASGIDTAAHQGALQAEGGTIAVWGTGIDRIYPPVNKNLAYEIAEKGLIVSEFPIGTRPYAGNFPRRNRLIAALSQVTLVVEAALESGSLITARLAAEMGREVMAVPGSIDNPHSKGCHKLIKDGAKLVECLDDILNECPGLLQNTGASSYSINKGIPEKRITAVQTASDQLSLPEGKMPSEKTENRPVGGSILDRMGFDPVHPDVLAGQLAMPAADLYAALLELELDGSVAAMPGGRYQRIRT
# notes: DprA (DNA processing chain A) of Neisseria meningitidis strain MC58, locus NMB0116; the dprA gene was amplified with primers EH041 and EH042 and inserted into pET28b(+); Theoretical size of the dimer is printed as 89.6 kDa; also called Nm DprA; source: E. coli ER2566 carrying pMGM1 (pET28b(+)), purified (Ni-NTA, dialysed)
# Key:
# [1] = target: the molecule itself; assay: SEC-MALS; Superdex 200 10/300 GL with Malvern Viscotek UV, RI and static light-scattering detectors; calibrated with BSA; conditions similar to the co-size-exclusion assay; size from the main eluting peak
# DprA (DprANm) [2] = target: T1, DprA (DprANm); assay: EMSA; 30 nM DprA; very stable complex; EMSA: 40 mM Tris-HCl pH 8, 2.5 mM EDTA, 2 mM MgCl2, 100 mg/ml BSA (so in the source), 6% glycerol, 1 mM DTT; 30 min on ice; 5% native PAGE at 4 °C; conditions: protein: recombinant; tags: N-terminal 6xHis (pET28b, cleavable); chain copies: 2; label: 32P
# DprA (DprANm) [3] = target: T1, DprA (DprANm); assay: EMSA; 30 nM DprA; complex dissociates easily during electrophoresis; EMSA: 40 mM Tris-HCl pH 8, 2.5 mM EDTA, 2 mM MgCl2, 100 mg/ml BSA (so in the source), 6% glycerol, 1 mM DTT; 30 min on ice; 5% native PAGE at 4 °C; conditions: protein: recombinant; tags: N-terminal 6xHis (pET28b, cleavable); chain copies: 2; label: 32P
# DprA (DprANm) [4] = target: T1, DprA (DprANm); assay: EMSA; 20-40 nM DprA; affinity similar to C80; EMSA: 40 mM Tris-HCl pH 8, 2.5 mM EDTA, 2 mM MgCl2, 100 mg/ml BSA (so in the source), 6% glycerol, 1 mM DTT; 30 min on ice; 5% native PAGE at 4 °C; conditions: protein: recombinant; tags: N-terminal 6xHis (pET28b, cleavable); chain copies: 2; label: 32P end label
# [5] = target: B1; assay: MST; RED-NHS-labelled SSBNm (23.6 nM) or SSBNmΔ8C (25.6 nM), DprANm titrated; 20 mM HEPES pH 7.5, 300 mM NaCl, 0.05 % Tween 20, 0.1 % Pluronic F-127, 0.1 % PEG 8000, 2 mM DTT; 22 °C, 20 % MST power, Monolith NT.115; conditions: both partners purified
# DprA (DprANm) [6] = target: T1, DprA (DprANm); assay: EMSA; 0.5-80 nM DprA; stronger than dsDNA G80C80 (P=0.034); EMSA: 40 mM Tris-HCl pH 8, 2.5 mM EDTA, 2 mM MgCl2, 100 mg/ml BSA (so in the source), 6% glycerol, 1 mM DTT; 30 min on ice; 5% native PAGE at 4 °C; conditions: protein: recombinant; tags: N-terminal 6xHis (pET28b, cleavable); chain copies: 2; label: 32P end label
binder,measurement,setting,value
B1,stoichiometry N,[1],2
dT80 (ssDNA) DNA: TTTTTTTTTTTTTTTTTTTTTTTTTTTTTTTTTTTTTTTTTTTTTTTTTTTTTTTTTTTTTTTTTTTTTTTTTTTTTTTT,binding result,DprA (DprANm) [2],binds
TTTTTTTTTTTTTTTTTTTTTTTTTTTTTTTTTTTTTTTT (ssDNA) [dT40],binding result,DprA (DprANm) [3],binds
GTB25 (ssDNA) DNA: GCCGTCTGAAAGCTCTAGGCCGTCTGAAACGTCAGGCCGTCTGAAAGCTCTAGGCCGTCTGAAACGTCAGGCCGTCTGAA,binding result,DprA (DprANm) [4],binds
"single-stranded binding protein of Neisseria meningitidis (SSBNm), recombinant (natural protein, UniProt P66848 1-174, looked up, RED-NHS dye (Monolith NT Protein Labeling kit RED-NHS), degree of labelling 0.3 to 0.6, in the MST experiment only, Theoretical size of the tetramer is printed as 83.4 kDa) MSLNKVILIGRLGRDPEVRYMPNGEAVCNFSVATSETWNDRNGQRVERTEWHNITMYRKLAEIAGQYLKKGGLVYLEGRIQSRKYQGKDGIERTAYDIVANEMKMLGGRNENSGGAPYEEGYGQSQEAYQRPAQQSRQPASDAPSHPQEAPAAPRRQPVPAAAPVEDIDDDIPF",stoichiometry N,[1],4
same,Kd,[5],1460 ± 544 nM
C80 (ssDNA) DNA: GCTGATCAACCCTACATGTGTAGGTAACCCTAACCCTAACCCTAAGGACAACCCTAGTGAAGCTTGTAACCCTAGGAGCT,binding result,DprA (DprANm) [6],binds
